Measured values taken from patent US20030027358A1.

Molecular target: MHC Class I heavy chains (HLA-A, B and C molecules) on CB23, HSB2, MP-1, Jurkat, primary T cells, primary B cells and primary NK cells
Test: flow cytometry competition; W6/32 at 0, 2, 5 or 10 µg in 100 µL, competitor 5 µg P3G2/Fc

amount of W6/32 at which P3G2 binding was totally blocked: 5 µg
Substance: W6/32 (ATCC HB-95), an antibody against MHC Class I heavy chains
